Publication PMC9482650, “Quantitative fragmentomics allow affinity mapping of interactomes” (Nature Communications, 2022)
One block for each binder: values may come before it.

How the values were obtained:
Experiment in all cases: holdup assay
Set-up in all cases: key: below the threshold = too weak to quantify, mostly under pKd 3.1 to 4
GOPC, Q9HD26 = target: GOPC, Q9HD26
IL16_3, Q14005 = target: IL16_3, Q14005
FRMPD2_3, Q68DX3 = target: FRMPD2_3, Q68DX3
IL16_4, Q14005 = target: IL16_4, Q14005
PCLO, Q9Y6V0 = target: T1, PCLO, Q9Y6V0
T1 sequence (Q9Y6V0 4491-4600, limits assumed, looked up): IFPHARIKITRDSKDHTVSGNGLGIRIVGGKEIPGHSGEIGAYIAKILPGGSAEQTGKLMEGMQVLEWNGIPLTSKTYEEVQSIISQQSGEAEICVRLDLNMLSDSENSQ

HTRA4, P83105 = target: T2, HTRA4, P83105
T2 sequence (P83105 378-476, limits assumed, looked up): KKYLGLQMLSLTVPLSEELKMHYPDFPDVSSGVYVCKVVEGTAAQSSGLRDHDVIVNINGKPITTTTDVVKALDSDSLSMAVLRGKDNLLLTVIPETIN

ARHGAP21, Q5T5U3 = target: T3, ARHGAP21, Q5T5U3
T3 sequence (Q5T5U3 45-169, limits assumed, looked up): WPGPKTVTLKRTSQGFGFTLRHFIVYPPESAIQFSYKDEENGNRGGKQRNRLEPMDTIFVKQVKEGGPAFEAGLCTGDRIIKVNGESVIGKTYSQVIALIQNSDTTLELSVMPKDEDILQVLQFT

MAGI2_4, Q86UL8 = target: MAGI2_4, Q86UL8
MAGI1_1, Q96QZ7 = target: MAGI1_1, Q96QZ7
LRRC7, Q96NW7 = target: T4, LRRC7, Q96NW7
T4 sequence (Q96NW7 1440-1537, limits assumed, looked up): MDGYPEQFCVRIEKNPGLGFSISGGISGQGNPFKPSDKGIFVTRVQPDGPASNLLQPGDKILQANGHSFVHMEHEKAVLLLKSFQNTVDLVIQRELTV

GORASP2, Q9H8Y8 = target: GORASP2, Q9H8Y8
LNX1_3, Q8TBB1 = target: LNX1_3, Q8TBB1
Inadl_6, Q8NI35 = target: Inadl_6, Q8NI35
PARD3B_1, Q8TEW8 = target: T5, PARD3B_1, Q8TEW8
T5 sequence (Q8TEW8 196-299, limits assumed, looked up): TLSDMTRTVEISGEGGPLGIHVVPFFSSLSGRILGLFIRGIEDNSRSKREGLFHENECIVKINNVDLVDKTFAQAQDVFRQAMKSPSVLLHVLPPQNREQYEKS

MAGI1_2, Q96QZ7 = target: MAGI1_2, Q96QZ7
SHANK1, Q9Y566 = target: T6, SHANK1, Q9Y566
T6 sequence (Q9Y566 658-767, limits assumed, looked up): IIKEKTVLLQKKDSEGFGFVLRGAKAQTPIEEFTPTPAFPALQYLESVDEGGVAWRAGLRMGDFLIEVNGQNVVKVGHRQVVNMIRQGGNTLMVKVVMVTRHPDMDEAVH

Inadl_4, Q8NI35 = target: Inadl_4, Q8NI35
NOS1, P29475 = target: NOS1, P29475
FRMPD4, Q14CM0 = target: FRMPD4, Q14CM0
Inadl_9, Q8NI35 = target: Inadl_9, Q8NI35
MAGI3_2, Q5TCQ9 = target: MAGI3_2, Q5TCQ9
APBA2_2, Q99767 = target: T7, APBA2_2, Q99767
T7 sequence (Q99767 654-744, limits assumed, looked up): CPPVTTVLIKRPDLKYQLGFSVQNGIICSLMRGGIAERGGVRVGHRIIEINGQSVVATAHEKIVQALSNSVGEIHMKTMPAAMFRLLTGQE

LNX2_3, Q8N448 = target: T8, LNX2_3, Q8N448
T8 sequence (Q8N448 463-564, limits assumed, looked up): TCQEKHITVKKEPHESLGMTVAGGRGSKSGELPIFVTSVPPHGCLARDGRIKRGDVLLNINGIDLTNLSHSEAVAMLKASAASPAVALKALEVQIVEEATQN

DLG2_3, Q15700 = target: DLG2_3, Q15700
SYNJ2BP, P57105 = target: T9, SYNJ2BP, P57105
T9 sequence (P57105 8-110, limits assumed, looked up): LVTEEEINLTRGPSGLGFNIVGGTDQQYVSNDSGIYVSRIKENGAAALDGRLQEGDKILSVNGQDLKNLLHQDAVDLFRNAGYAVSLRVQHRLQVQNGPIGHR

DLG3_3, Q92796 = target: T10, DLG3_3, Q92796
T10 sequence (Q92796 374-475, limits assumed, looked up): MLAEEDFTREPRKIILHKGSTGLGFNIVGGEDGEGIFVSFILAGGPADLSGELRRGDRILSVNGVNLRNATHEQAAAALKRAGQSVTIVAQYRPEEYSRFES

NHERF4_2, Q86UT5 = target: NHERF4_2, Q86UT5
[1] = plain residues with an end cap or a label only (N-terminal biotin on a linker: ado-ado)
[2] = plain residues with an end cap or a label only (N-terminal biotin on a linker: ttds)

Chain of Inadl_4, Q8NI35 (Q8NI35 547-651): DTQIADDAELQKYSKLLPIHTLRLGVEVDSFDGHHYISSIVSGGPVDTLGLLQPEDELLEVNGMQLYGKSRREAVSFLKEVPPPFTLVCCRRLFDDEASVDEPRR
Chain of Inadl_9, Q8NI35 (Q8NI35 1530-1615): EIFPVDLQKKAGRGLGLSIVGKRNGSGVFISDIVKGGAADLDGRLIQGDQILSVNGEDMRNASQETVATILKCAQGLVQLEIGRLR
Chain of MAGI1_2, Q96QZ7 (Q96QZ7 456-580): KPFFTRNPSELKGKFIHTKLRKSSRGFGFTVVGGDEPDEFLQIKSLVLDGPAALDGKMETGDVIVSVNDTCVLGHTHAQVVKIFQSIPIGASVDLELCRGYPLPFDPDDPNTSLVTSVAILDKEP
Chain of MAGI3_2, Q5TCQ9 (Q5TCQ9 398-503): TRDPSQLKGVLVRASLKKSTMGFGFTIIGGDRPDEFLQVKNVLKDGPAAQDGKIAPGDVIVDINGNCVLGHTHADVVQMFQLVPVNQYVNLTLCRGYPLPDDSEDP
Chain of IL16_4, Q14005 (Q14005 1229-1329): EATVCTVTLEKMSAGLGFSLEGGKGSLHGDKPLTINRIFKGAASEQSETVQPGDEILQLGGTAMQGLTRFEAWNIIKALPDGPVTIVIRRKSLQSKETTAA
Chain of FRMPD2_3, Q68DX3 (Q68DX3 1073-1166): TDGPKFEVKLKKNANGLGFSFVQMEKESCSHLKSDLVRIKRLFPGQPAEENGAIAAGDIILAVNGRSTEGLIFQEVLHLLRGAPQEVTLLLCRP
Chain of Inadl_6, Q8NI35 (Q8NI35 1058-1167): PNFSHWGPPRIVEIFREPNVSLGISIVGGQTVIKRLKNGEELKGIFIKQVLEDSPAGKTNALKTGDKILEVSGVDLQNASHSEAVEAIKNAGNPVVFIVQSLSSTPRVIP
Chain of MAGI2_4, Q86UL8 (Q86UL8 772-865): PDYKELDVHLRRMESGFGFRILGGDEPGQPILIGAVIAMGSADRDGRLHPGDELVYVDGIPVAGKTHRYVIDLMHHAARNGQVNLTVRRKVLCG
Chain of NOS1, P29475 (P29475 9-101): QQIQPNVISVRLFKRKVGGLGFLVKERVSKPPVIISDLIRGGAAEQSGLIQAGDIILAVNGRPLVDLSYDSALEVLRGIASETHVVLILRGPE
Chain of NHERF4_2, Q86UT5 (Q86UT5 220-308): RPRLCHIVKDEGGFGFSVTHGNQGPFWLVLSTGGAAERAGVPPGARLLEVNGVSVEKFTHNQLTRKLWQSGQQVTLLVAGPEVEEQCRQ
Chain of FRMPD4, Q14CM0 (Q14CM0 67-160): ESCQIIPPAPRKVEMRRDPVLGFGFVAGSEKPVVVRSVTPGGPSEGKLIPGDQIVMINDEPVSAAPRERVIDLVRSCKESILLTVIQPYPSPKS
Chain of LNX1_3, Q8TBB1 (Q8TBB1 500-596): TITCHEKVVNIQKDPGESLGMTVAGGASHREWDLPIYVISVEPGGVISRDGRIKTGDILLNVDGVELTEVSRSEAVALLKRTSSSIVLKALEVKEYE
Chain of IL16_3, Q14005 (Q14005 1107-1207): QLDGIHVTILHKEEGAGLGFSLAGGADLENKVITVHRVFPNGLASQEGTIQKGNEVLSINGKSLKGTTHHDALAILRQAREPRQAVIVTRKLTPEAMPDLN
Chain of MAGI1_1, Q96QZ7 (Q96QZ7 1-106): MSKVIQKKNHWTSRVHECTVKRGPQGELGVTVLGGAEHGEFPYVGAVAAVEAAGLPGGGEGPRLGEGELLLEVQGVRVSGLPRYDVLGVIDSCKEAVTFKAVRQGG

- pKd (GOPC, Q9HD26; [1]): below the threshold
- pKd (IL16_3, Q14005; [1]): below the threshold
- pKd (FRMPD2_3, Q68DX3; [1]): below the threshold
- pKd (IL16_4, Q14005; [1]): 3.6
- pKd (PCLO, Q9Y6V0; [1]): below the threshold
- pKd (HTRA4, P83105; [1]): below the threshold
- pKd (ARHGAP21, Q5T5U3; [1]): 3.92
- pKd (MAGI2_4, Q86UL8; [1]): below the threshold
- pKd (MAGI1_1, Q96QZ7; [1]): below the threshold
- pKd (LRRC7, Q96NW7; [1]): below the threshold
- pKd (GORASP2, Q9H8Y8; [1]): below the threshold
- pKd (LNX1_3, Q8TBB1; [1]): below the threshold
- pKd (Inadl_6, Q8NI35; [1]): below the threshold
- pKd (PARD3B_1, Q8TEW8; [1]): 3.89
- pKd (MAGI1_2, Q96QZ7; [1]): below the threshold
- pKd (SHANK1, Q9Y566; [1]): below the threshold
- pKd (Inadl_4, Q8NI35; [1]): below the threshold
- pKd (NOS1, P29475; [1]): 3.74
- pKd (FRMPD4, Q14CM0; [1]): below the threshold
- pKd (Inadl_9, Q8NI35; [1]): below the threshold
- pKd (MAGI3_2, Q5TCQ9; [1]): below the threshold
- pKd (APBA2_2, Q99767; [1]): below the threshold
- pKd (LNX2_3, Q8N448; [1]): below the threshold
- pKd (DLG2_3, Q15700; [1]): below the threshold
- pKd (SYNJ2BP, P57105; [1]): below the threshold
- pKd (DLG3_3, Q92796; [1]): below the threshold
- pKd (NHERF4_2, Q86UT5; [1]): below the threshold
B1: DCHS2, Q6V1P9 (peptide)
chain: ELKAEDEVQI

- pKd (GOPC, Q9HD26; [2]): 4.85
- pKd (IL16_3, Q14005; [2]): below the threshold
- pKd (FRMPD2_3, Q68DX3; [2]): below the threshold
- pKd (IL16_4, Q14005; [2]): below the threshold
- pKd (PCLO, Q9Y6V0; [2]): below the threshold
- pKd (HTRA4, P83105; [2]): below the threshold
- pKd (ARHGAP21, Q5T5U3; [2]): 4.55
- pKd (MAGI2_4, Q86UL8; [2]): below the threshold
- pKd (MAGI1_1, Q96QZ7; [2]): below the threshold
- pKd (LRRC7, Q96NW7; [2]): 4.47
- pKd (GORASP2, Q9H8Y8; [2]): below the threshold
- pKd (LNX1_3, Q8TBB1; [2]): below the threshold
- pKd (Inadl_6, Q8NI35; [2]): 5.69
- pKd (PARD3B_1, Q8TEW8; [2]): 4.49
- pKd (MAGI1_2, Q96QZ7; [2]): below the threshold
- pKd (SHANK1, Q9Y566; [2]): 5.38
- pKd (Inadl_4, Q8NI35; [2]): below the threshold
- pKd (NOS1, P29475; [2]): 4.36
- pKd (FRMPD4, Q14CM0; [2]): 5.35
- pKd (Inadl_9, Q8NI35; [2]): 3.7
- pKd (MAGI3_2, Q5TCQ9; [2]): 3.81
- pKd (APBA2_2, Q99767; [2]): below the threshold
- pKd (LNX2_3, Q8N448; [2]): below the threshold
- pKd (DLG2_3, Q15700; [2]): 3.73
- pKd (SYNJ2BP, P57105; [2]): 5.45
- pKd (DLG3_3, Q92796; [2]): 3.8
- pKd (NHERF4_2, Q86UT5; [2]): below the threshold
B2: SLC15A5, A6NIM6 (peptide)
chain: SSIDLWETAL
